Assay: soluble on expression in E. coli; label from the status in PepcDB or PDB records

Sequence	soluble on expression in E. coli
MKTVTEFQNKNILVLGIAKSGYAAATLLQKLGANVIVNDGKPLAENVLAAELQAKGMDVVCGGHPLELLERNISLVVKNPGIPYSNPILVAAKEKQIPIVTEVELAYRISEAPFVGITGSNGKTTTTMLTFEMLKEGQKHPVIAGNIGTVACEVAQDAKENEVVVTELSSFQLMGVELFQPKIAAFLNLFEAHLDYHGTKKEYGLAKANIFKNQTENDYSVINADDADVMALSAYSKGQKVLFSTTKEIEDGACIKDNALYFKAEKVVEVDDIVLPGQHNLENILAAMSIAKLLGVSNEAITAVLKRFTGVKHRLEYVTTINNRKFYNDSKATNMLATEKALSAFTQPTVLLAGGLDRGNEFDDLIPYFKNVKAIVTFGQTAPKLVRAAEKAGLDTIESVDTLDEAVVKAYAHSTDGDVILLSPACASWDQFKTFEERGDIFIQAVHKLI	not soluble
MGSDKIHHHHHHMKDVQNEKDPRMVPLKKVGIKDLHWPLKVILKEDGYQSTVAQISCSVDLHREKRGIHMSRFIEVLNKLEVITPQIFEEILDDLIEIMEAKRAHLEIHFPYFIWKESPVSRKKSPLKVDCFVEAEKEKNFSFKIGVRTPVHTLCPCSKEISDYGAHNQRAFVEITVKTRKFIWFEDLVEIAEKNASSPLYTLLKRPDEKFVTEKAYENPRFVEDVARDVALELEKDPRITWYRVYVESMESIHNHNAFACVEKGDFVLEG	not soluble
MGSDKIHHHHHHMPAKTLYCATLASLNGLSDNRNATGISFIFQGGAVEEMQKVLVNEKGMAWITCEKCSHTSGIDVSRLSDRAPFIRYKCVKCDAEFDVACEFRKSYRKEVHLNGVFIQQQPREDYAGRIEILDISKTGVRFKTRVKFDFKPGYLLKLSFSLDDAKKTNINQTVEVKWVNGQLVGGEFRNQDHWTSQQLGFYFMS	not soluble
MRKICCLLFAVFILCISASCYQRKETRISQPVIMPAIQSPEDIDDYIGEKGYEILESKGKTEEYTLDKKRVYNNWQIWAVQYPEPDHYLGKEISIYSYIIRNHPLDDKSPNKKTYLSVMICENTIIGGYSSPYYEEKDISLVPIGGVYSLEGKNFEEIKNINFDRWRKRFIKKYE	not soluble
MSVDKYGKVYLIGAGPGNPNYLTKKAERLIREADVILYDRLVNPLILQYANLTTEIIDVGKKPYAKHIQQEKINECIVEAARRYNKVVRLKGGDPAIFGRVQEEVDTLNNFNIAFEIVPGVTSASAAVATMQTGLTMRAVAKSVTFSTGHFKDSEENEVDVNALVNGGTLAIYMGVKRLGKIIAQIQQYTDIDYPIAIVFQASCFNEFVVKGRLSNIVGKLEHYAIEAKPGICIIGEVVGYTENVSTTSNPTQQFYVVSGSRHDALMLCEHLYDEGYGCLLNPNDTSNGTYHSSQYDYYDAFIKQQENVTYISTDRADANTVLCH	not soluble
MGSDKIHHHHHHMSDTLRRKQAADHAMRHWVHQSRGPVPIGSDAHKQMFCNMLLDTHNPYKPAVIDWPALRPDALRRLTSLPIWDIAVQTEGRASVRVATFASTVRDPLLRAALELDAAEEARHKVVLSKLVQAYGIRLAPEPAYPAPKDAEWAWMVTGFSECIDSFFAFGLFRSAQRSGYFPPELVETFEPVIQEEGRHILFFANWFGWYWRNLSWWRRPWLFARVAAVWAYLIWERIGIARGIDADGVARDANFPANTAATVGNALNPRELIELCLVENARRMAGYDTRLLRPTIVPRLARFALRFIRK	not soluble
MRTTSRALMYGLYDEFQISLKCPRSPPNSSFSICHAQAAFLSGVCEAMLCPLERVQVLLQTTIFHDKFKNTLHTFNRLRDYGYREYYRGFSVILIRNSLSNTIFFTLRDPLKQKIVGIPQAGRLPESLQQLIGDFVAGSLLGATISTAFFPLGVIKNHMQAKVGVKYESGFKVFRDVWQLRNRSLRGLYLGVHLNFTRSLVAWGIINSMYGILRRALAPFE	not soluble
MAHHHHHHMSTKYIIEHLDELEEWCIHEYIHICETVRDENVIFTKFCENFSELTNGKYKPACYEKSIDELKNELLSGNICLLDMKAKNKLTCNDKNKIDFLLFGGILGNVPSDDRTSILRNFNFPISRNLGPIQMTTNTAVLVCYIILNDNVELENIPYVDDPEIFLKNNKESITLPFRFVSKYYYTKCEQDKNVPVLPEKFKEYLIKLGDQQFDDMSSFLENEDN	not soluble
MGSDKIHHHHHHMSSCEIFPLISKLSAEGKRFAIVSIYKGNRLERTIVSDGRVLLGSLDRNIIEIALEALEKGKVIQKDLEDGKLVIEPIEPRPAIIVVGSGIIARFLAKLAIDMGYYVAVVGSGDVKEEDFSGVYAISNDLNLLEQMVSEDSIVIVANEGGKPYDIDALYIAMKKRARFVGLLASQKRAALMISLLVKRDIPLEEIKRRLHSPLGLDIGSKTAEEIALSILSEVVLDLRGGTGKRLQEVKNPYLLLDDALAGKIEDKCMFVPKSLSQQ	not soluble
MAQLTHINAAGEAHMVDVSAKAETVREARAEAFVTMRSETLAMIIDGRHHKGDVFATARIAGIQAAKRTWDLIPLCHPLMLSKVEVNLQAEPEHNRVRIETLCRLTGKTGVEMEALTAASVAALTIYDMCKAVQKDMVIGPVRLLAKSGGKSGDFKVEADD	soluble
MTDFFRFPNTPHLLWLGQGQPRDDKILSDAEIAALLQDEVLIEEKLDGANLGISLDEHGELRAQNRGQYLPQPFSGQFSRLNSWLGQHGEILKHTLTPEMILFGEWCAARHSLDYNKLPDWFLLFDVYDREAGKFWSVERRNQLAQKLNITTVPLLKRTKITCNQLVQLLDDAQSRYRSGKVEGIVIRCDSPLWCESRAKLVNREFVQAIEDHWRSRSIEWNLVHAGSVKRS	not soluble
MSQQPGVLPENMKRYMGRDAQRMNILAGRIIAETVRSTLGPKGMDKMLVDDLGDVVVTNDGVTILREMSVEHPAAKMLIEVAKTQEKEVGDGTTTAVVVAGELLRKAEELLDQNVHPTIVVKGYQAAAQKAQELLKTIACEVGAQDKEILTKIAMTSITGKGAEKAKEKLAEIIVEAVSAVVDDEGKVDKDLIKIEKKSGASIDDTELIKGVLVDKERVSAQMPKKVTDAKIALLNCAIEIKETETDAEIRITDPAKLMEFIEQEEKMLKDMVAEIKASGANVLFCQKGIDDLAQHYLAKEGIVAARRVKKSDMEKLAKATGANVITNIKDLSAQDLGDAGLVEERKISGDSMIFVEECKHPKAVTMLIRGTTEHVIEEVARAVDDAVGVVGCTIEDGRIVSGGGSTEVELSMKLREYAEGISGREQLAVRAFADALEVIPRTLAENAGLDAIEILVKVRAAHASNGNKCAGLNVFTGAVEDMCENGVVEPLRVKTQAIQSAAESTEMLLRIDDVIAAEKLRGAPDMGDMGGMPGMGGMPGMM	soluble
MKAIILGIQNILEVLLEDIGILKMESIFLHTNITNIPHSVLYVSLSYYIINPCTSASSNLDDSFS	soluble
MSLKFIVKPHPEIFVKSESVRKRFTKILESNIRIIVKARTQGVAVFNRRDHIEVTSNSDTYYAEVLEILTTTPGIQQVLEVQQSSFTDLHNIYEQVLELNRANLENKTFVVRAKRRGKHDFTSIELERYVGGGLNQAIASAKVKLINPDVTVQVEVVDELLNQVIARHKGLGGFPLGTQEDVLSLISGGFDSGVSSYLHIKRGSKVHYCFFNLGGPAHEIGVKQTAYYLWQKYGSSAKVRFIAIDFAPVVAEILEKIDDGQMGVVLKRMFMRTAGMVAEKFGIQALVTGEALGQVSSQTLTNLRHIDNVTDTLILRPLINWDKEDIIRLAREIGTEDFAKTMPEFCGVISKSPTVKAVKEKLEEEEAKFDFALLDQVVYNARQIDIRDIGKEGHHHHHH	soluble
MSAAGVRSTRQRAAISTLLETLDDFRSAQELHDELRRRGENIGLTTVYRTLQSMASSGLVDTLHTDTGESVYRRCSEHHHHHLVCRSCGSTIEVGDHEVEAWAAEVATKHGFSDVSHTIEIFGTCSDCRS	soluble
MRHSLWLLLAAILSLPAQAGTECRDIHDRDLRRMCNALERGDSGDCGDIDSRDMRRYCGALLAPGQRYDCDDIRDGDTRRQCRAIVRGDRKRCDDIDSRDMRRQCRAVVSRAPWQCDGIDDRDMRRICRVILSR	soluble
GSMAISDPPNSSSVPLEGNGTILVKGNVTIIVEGNADITVKGDATTLVEGNQTNTVNGNLSWKVAGTVDWDVGGDWTEKMASMSSISSGQYTIDGSRIDIGSVEGYIPEAPRDGQAYVRKDGEWVFLSTFLVEHHHHHH	soluble

Source: the DeepSol protein solubility set
